{
  "source": "paper PMC7102968",
  "about": "“The complex formed between a synthetic RNA aptamer and the transcription repressor TetR is a structural and functional twin of the operator DNA–TetR regulator complex” (Nucleic Acids Research, 2020)",
  "target": "the molecule itself",
  "test": "crystal structure; TetR co-crystallised with RNA aptamer K1 (2.7 Å) or K2 (2.9 Å); complex purified by gel filtration in 20 mM Tris-HCl pH 8.0, 150 mM NaCl, 5 mM MgCl2; sitting-drop vapor diffusion at 20°C",
  "data": [
    {"protein": "TetR type BD' (TetR (B1–B187:D188–D208; C68S, C88N, C121T and C144S)) (natural protein, TetR class B, residues 1-187 of the cysteine-free chimeric TetR type BD'; TetR class D, residues 188-208 of the chimeric TetR type BD'; homodimer; also called Tet repressor; wild-type TetR; source: purified) MSRLDKSKVINSALELLNEVGIEGLTTRKLAQKLGVEQPTLYWHVKNKRALLDALAIEMLDRHHTHFSPLEGESWQDFLRNNAKSFRNALLSHRDGAKVHLGTRPTEKQYETLENQLAFLTQQGFSLENALYALSAVGHFTLGSVLEDQEHQVAKEERETPTTDSMPPLLRQAIELFDHQGAEPAFLHGLESLIRGFEVQLTALLQIV", "values": [
      {"measurement": "stoichiometry N", "value": 2}
    ]}
  ]
}
